In article PMC2120351 (The Journal of Cell Biology, 1995):

What was measured:
[1] = molecular target: T1, recombinant whole p62 (rat nucleoporin p62 expressed in E. coli) (rat, UniProt P17955 1-525); experiment: far-Western, overlay or dot blot
T1 sequence: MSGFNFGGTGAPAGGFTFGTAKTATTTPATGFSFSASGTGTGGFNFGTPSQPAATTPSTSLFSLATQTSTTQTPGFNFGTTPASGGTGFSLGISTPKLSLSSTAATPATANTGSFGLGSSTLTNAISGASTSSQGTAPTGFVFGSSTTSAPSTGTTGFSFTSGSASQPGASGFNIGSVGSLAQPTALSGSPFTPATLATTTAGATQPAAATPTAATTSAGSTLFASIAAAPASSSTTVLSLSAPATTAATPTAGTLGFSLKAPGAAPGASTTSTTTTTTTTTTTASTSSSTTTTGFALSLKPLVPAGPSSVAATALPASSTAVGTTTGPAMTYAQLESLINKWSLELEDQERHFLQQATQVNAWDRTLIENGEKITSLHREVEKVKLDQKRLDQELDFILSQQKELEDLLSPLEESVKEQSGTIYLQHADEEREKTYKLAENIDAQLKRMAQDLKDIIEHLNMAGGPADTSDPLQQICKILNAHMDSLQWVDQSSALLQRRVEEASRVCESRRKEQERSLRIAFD

[2] = molecular target: the molecule itself; experiment: far-Western, overlay or dot blot

binding result [1]: binds
B1: recombinant p62 rod domain (domain or fragment)
chain: MTYAQLESLINKWSLELEDQERHFLQQATQVNAWDRTLIENGEKITSLHREVEKVKLDQKRLDQELDFILSQQKELEDLLSPLEESVKEQSGTIYLQHADEEREKTYKLAENIDAQLKRMAQDLKDIIEHLNMAGGPADTSDPLQQICKILNAHMDSLQWVDQSSALLQRRVEEASRVCESRRKEQERSLRIAFD
binding result [2]: binds
